Test results published in US6730503B1 (Roche Vitamins Inc., priority 1996, dated 2004).

Legend:
[1] = Product assay with Enzyme sA2 and Enzyme A; format: biochemical
[2] = Thermal stability, 5 minutes, residual activity by PMS-DCIP assay; format: physicochemical
Description: Table 4 indicates the results of thermal-stabilities of the enzymes. The enzyme (about 0.05 mg/ml) in 25 mM HEPES buffer, pH 7.5, containing 5% sucrose, 0.2 M NaCl, and 5 mM CaCl2 was incubated at temperature indicated in the table (4-60° C.) for 5 minutes, cooled in ice bath and assayed by PMS-DCIP spectrophotometric method. Remaining activity was expressed as relative activity against that obtained by 4° C. incubation.

[3] = 2KGA production by purified recombinant AADH in a reaction mixture; format: biochemical; conditions: 1.7 mg/ml enzyme, 4% L-sorbose, 30° C., 20 hours; TLC assay
Source text: As a result, about 2 g/l 2KGA (TLC assay) was produced. […]

[4] = pH stability, 3 hours at 25° C., residual activity by PMS-DCIP assay; format: physicochemical; conditions: relative to no incubation at pH 8.0
Description: Enzymes A, A′, A″ and B were incubated in buffers of various pH-values for 3 hours at 25° C. and the residual activities were assayed and expressed as relative values against that obtained by no incubation at pH 8.
Table 3 indicates the results of pH-stabilities of the enzymes. The enzyme (about 0.01 mg/ml) was incubated with 50 mM buffer containing 5% sucrose, 0.2 M NaCl, and 5 mM CaCl2 at 25° C. for 3 hours and assayed by PMS-DCIP spectrophotometric method. The buffers were Na-acetate, pH4 and 5, Tris-malate-NaOH, pH 6, 7 and 8, glycine-NaOH, pH 9 and 10. The values in the table are expressed as relative activity against that obtained by no incubation at pH 8.0.

[5] = 4° C. for 5 minutes (reference)
[6] = 20° C. for 5 minutes, relative to 4° C. incubation
[7] = 30° C. for 5 minutes, relative to 4° C. incubation
[8] = 40° C. for 5 minutes, relative to 4° C. incubation
[9] = 50° C. for 5 minutes, relative to 4° C. incubation
[10] = 60° C. for 5 minutes, relative to 4° C. incubation

Molecule	Products from D-sorbitol in product assay [1]	Products from L-sorbose in product assay [1] [KGA]	Relative activity (thermal stability) [2, 5] [%]	Relative activity (thermal stability) [2, 6] [%]	Relative activity (thermal stability) [2, 7] [%]	Residual activity ([2]; 40° C. for 5 min) [%]	Relative activity (thermal stability) [2, 8] [%]	Relative activity (thermal stability) [2, 9] [%]	Relative activity (thermal stability) [2, 10] [%]	2KGA produced [3]	Relative activity (pH stability) ([4]; incubated at pH 4.0, 3 hours) [%]	Relative activity (pH stability) ([4]; incubated at pH 5.0, 3 hours) [%]	Relative activity (pH stability) ([4]; incubated at pH 6.0, 3 hours) [%]	Relative activity (pH stability) ([4]; incubated at pH 7.0, 3 hours) [%]	Relative activity (pH stability) ([4]; incubated at pH 8.0, 3 hours) [%]	Relative activity (pH stability) ([4]; incubated at pH 9.0, 3 hours) [%]	Relative activity (pH stability) ([4]; incubated at pH 10.0, 3 hours) [%]	Relative activity (pH stability) ([4]; incubated at pH 11.0, 3 hours) [%]
Enzyme A: recombinant AADH of G. oxydans DSM No. 4025, amino acid sequence SEQ ID NO 5, plasmid p24D4/pSSA102R (protein, Gluconobacter oxydans; SIGNAL (1)..(23)) MKPTSLLWASAGALALLAAPAFAQVTPVTDELLANPPAGEWISYGQNQENYRHSPLTQITTENVGQLQLVWARGMQPGKVQVTPLIHDGVMYLANPGDVIQAIDAKTGDLIWEHRRQLPNIATLNSFGEPTRGMALYGTNVYFVSWDNHLVALDTATGQVTFDVDRGQGEDMVSNSSGPIVANGVIVAGSTCQYSPFGCFVSGHDSATGEELWRNYFIPRAGEEGDETWGNDYEARWMTGAWGQITYDPVTNLVHYGSTAVGPASETQRGTPGGTLYGTNTRFAVRPDTGEIVWRHQTLPRDNWDQECTFEMMVTNVDVQPSTEMEGLQSINPNAATGERRVLTGVPCKTGTMWQFDAETGEFLWARDTNYQNMIESIDENGIVTVNEDAILKELDVEYDVCPTFLGGRDWPSAALNPDSGIYFIPLNNVCYDMMAVDQEFTSMDVYNTSNVTKLPPGKDMIGRIDAIDISTGRTLWSVERAAANYSPVLSTGGGVLFNGGTDRYFRALSQETGETLWQTRLATVASGQAISYEVDGMQYVAIAGGGVSYGSGLNSALAGERVDSTAIGNAVYVFALPQ	D-glucose only	2	100.0	91.5	78.0	20	19.9	4.1	2.9	about 2 g/l	5.4	32.0	74.7	76.9	80.1	60.1	53.2	31.0
Enzyme A′: recombinant AADH of G. oxydans DSM No. 4025, amino acid sequence SEQ ID NO 6, plasmid p1E2 (protein, Gluconobacter oxydans; SIGNAL (1)..(23)) MKTSSLLVASVAALASYSSFALAQVTPVTDELLANPPAGEWISYGQNQENYRHSPLTQITTENVGQLQLVWARGMQPGKVQVTPLIHDGVMYLANPGDVIQAIDAKTGDLIWEHRRQLPNIATLNSFGEPTRGMALYGTNVYFVSWDNHLVALDTATGQVTFDVDRGQGEDMVSNSSGPIVANGVIVAGSTCQYSPFGCFVSGHDSATGEELWRNYFIPRAGEEGDETWGNDYEARWMTGVWGQITYDPVGGLVHYGSSAVGPASETQRGTTGGTMYGTNTRFAVRPETGEIVWRHQTLPRDNWDQECTFEMMVANVDVQPAADMDGVRSINPNAATGERRVLTGVPCKTGTMWQFDAETGEFLWARDTSYENIIESIDENGIVTVDESKVLTELDTPYDVCPLLLGGRDWPSAALNPDTGIYFIPLNNTCMDIEAVDQEFSSLDVYNQSLTAKMAPGKELVGRIDAIDISTGRTLWTAEREASNYAPVLSTAGGVLFNGGTDRYFRALSQETGETLWQTRLATVASGQAVSYEIDGVQYIAIGGGGTTYGSFHNRPLAEPVDSTAIGNAMYVFALPQQ	–	–	100.0	100.8	103.6	–	78.9	0.6	0.0	–	0.0	10.0	82.7	96.9	100.0	97.3	85.4	61.3
Enzyme A″: recombinant AADH of G. oxydans DSM No. 4025, amino acid sequence SEQ ID NO 7, plasmid p26C3 (protein, Gluconobacter oxydans; SIGNAL (1)..(23)) MKLTTLLQSSAALLVLGTIPALAQTAITDEMLANPPAGEWINYGQNQENYRHSPLTQITADNVGQLQLVWARGMEAGKIQVTPLVHDGVMYLANPGDVIQAIDAATGDLIWEHRRQLPNIATLNSFGEPTRGMALYGTNVYFVSWDNHLVALDTSTGQVVFDVDRGQGTDMVSNSSGPIVANGVIVAGSTCQYSPFGCFVSGHDSATGEELWRNTFIPRAGEEGDETWGNDYEARWMTGVWGQITYDPVGGLVHYGTSAVGPAAEIQRGTVGGSMYGTNTRFAVRPETGEIVWRHQTLPRDNWDQECTFEMMVVNVDVQPSAEMEGLHAINPDAATGERRVVTGVPCKNGTMWQFDAETGEFLWARDTSYQNLIESVDPDGLVHVNEDLVVTELEVAYEICPTFLGGRDWPSAALNPDTGIYFIPLNNACSGMTAVDQEFSSLDVYNVSLDYKLSPGSENMGRIDAIDISTGRTLWSAERYASNYAPVLSTGGGVLFNGGTDRYFRALSQETGETLWQTRLATVASGQAISYEIDGVQYVAIGRGGTSYGSNHNRALTERIDSTAIGSAIYVFALPQQ	–	–	100.0	96.0	86.1	–	72.8	26.6	13.3	–	6.2	77.9	105.8	100.9	99.0	100.9	104.0	79.2
Enzyme B: recombinant AADH of G. oxydans DSM No. 4025, amino acid sequence SEQ ID NO 8, plasmid pSS31/pSSB103R (protein, Gluconobacter oxydans; SIGNAL (1)..(23)) MNPTTLLRTSAAVLLLTAPAAFAQVTPITDELLANPPAGEWINYGRNQENYRHSPLTQITADNVGQLQLVWARGMEAGAVQVTPMIHDGVMYLANPGDVIQALDAQTGDLIWEHRRQLPAVATLNAQGDRKRGVALYGTSLYFSSWDNHLIALDMETGQVVFDVERGSGEDGLTSNTTGPIVANGVIVAGSTCQYSPYGCFISGHDSATGEELWRNHFIPQPGEEGDETWGNDFEARWMTGVWGQITYDPVTNLVFYGSTGVGPASETQRGTPGGTLYGTNTRFAVRPDTGEIVWRHQTLPRDNWDQECTFEMMVANVDVQPSAEMEGLRAINPNAATGERRVLTGAPCKTGTMWSFDAASGEFLWARDTNYTNMIASIDETGLVTVNEDAVLKELDVEYDVCPTFLGGRDWSSAALNPDTGIYFLPLNNACYDIMAVDQEFSALDVYNTSATAKLAPGFENMGRIDAIDISTGRTLWSAERPAANYSPVLSTAGGVVFNGGTDRYFRALSQETGETLWQARLATVATGQAISYELDGVQYIAIGAGGLTYGTQLNAPLAEAIDSTSVGNAIYVFALPQ	–	–	100.0	97.2	95.4	–	84.6	29.2	0.0	–	25.2	56.1	100.9	101.9	114.0	101.9	85.5	70.1
